Reference: US20210403506A1 (XDCEXPLORER SHANGHAI, published 2021)
Square brackets hold non-standard residues; d marks the D form. Ends that are not written are not given here. * marks the point of attachment. Pro(trans-4-Ph) = O=C(O)[C@@H]1C[C@@H](c2ccccc2)CN1; Bpa = N[C@@H](Cc1ccc(C(=O)c2ccccc2)cc1)C(=O)O; PEG8 = NCCOCCOCCOCCOCCOCCOCCOCCOCCC(=O)O; Phe(4-Cl) = N[C@@H](Cc1ccc(Cl)cc1)C(=O)O; Phe(4-Me) = Cc1ccc(C[C@H](N)C(=O)O)cc1; 1Nal = N[C@@H](Cc1cccc2ccccc12)C(=O)O; 2Nal = N[C@@H](Cc1ccc2ccccc2c1)C(=O)O; dNMeY = CN[C@H](Cc1ccc(O)cc1)C(=O)O; Hydrocinnamoyl = O=C(CCc1ccccc1)*; Palmitoyl = CCCCCCCCCCCCCCCC(=O)*; Hyp = O=C(O)[C@@H]1C[C@@H](O)CN1; 3‑phenylpropyl = c1ccc(CCC*)cc1; Tic = O=C(O)[C@@H]1Cc2ccccc2CN1; NMeL = CN[C@@H](CC(C)C)C(=O)O; Thz = O=C(O)[C@@H]1CSCN1; βAla = NCCC(=O)O

T1: human Chemokine like receptor 1 (human, UniProt Q99788 1-373)
T1 sequence (looked up): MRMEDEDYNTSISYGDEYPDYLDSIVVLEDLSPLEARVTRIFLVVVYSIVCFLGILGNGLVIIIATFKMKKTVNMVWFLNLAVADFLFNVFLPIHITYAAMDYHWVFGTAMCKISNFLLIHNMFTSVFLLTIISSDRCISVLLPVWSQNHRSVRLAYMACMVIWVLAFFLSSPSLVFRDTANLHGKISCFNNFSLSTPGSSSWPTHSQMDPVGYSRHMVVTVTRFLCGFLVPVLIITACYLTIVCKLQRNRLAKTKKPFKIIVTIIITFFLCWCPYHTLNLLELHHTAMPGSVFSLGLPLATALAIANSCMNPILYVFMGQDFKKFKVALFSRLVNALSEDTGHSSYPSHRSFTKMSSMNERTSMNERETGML

B1: YW-121 (peptide)
peptide: [dY]F[NMeL][Thz][dS]QF[dA][Tic]S-OH
modifications: N-terminus assumed
SMILES: CC(C)C[C@@H](C(=O)N1CSC[C@H]1C(=O)N[C@H](CO)C(=O)N[C@@H](CCC(N)=O)C(=O)N[C@@H](Cc1ccccc1)C(=O)N[C@H](C)C(=O)N1Cc2ccccc2C[C@H]1C(=O)N[C@@H](CO)C(=O)O)N(C)C(=O)[C@H](Cc1ccccc1)NC(=O)[C@H](N)Cc1ccc(O)cc1
B2: YW-111 (peptide)
peptide: Hydrocinnamoyl-[dY]F[NMeL]P[dS]QF[dA][Tic]S-OH
SMILES: CC(C)C[C@@H](C(=O)N1CCC[C@H]1C(=O)N[C@H](CO)C(=O)N[C@@H](CCC(N)=O)C(=O)N[C@@H](Cc1ccccc1)C(=O)N[C@H](C)C(=O)N1Cc2ccccc2C[C@H]1C(=O)N[C@@H](CO)C(=O)O)N(C)C(=O)[C@H](Cc1ccccc1)NC(=O)[C@@H](Cc1ccc(O)cc1)NC(=O)CCc1ccccc1

Each binder was assayed against T1, human Chemokine like receptor 1 (assay: cell-based or functional assay).

Going from [dY]F[NMeL]P[dS]QF[dA][Phe(4-Me)]S [YW-205] to [dY]F[NMeL]P[dT]QF[dA][Tic]S [YW-204], the “EC50 (µM), activation of Tango CMKLR1-bla U2OS cells” value (“EC50 (µM), activation” for short) rises from 0.0062 µM to 0.062 µM (10-fold).

{3‑phenylpropyl}-[dY]F[NMeL]P[dS]QF[dA][Tic]S-OH [YW-207] and B1 are within 1.5-fold of each other in “EC50 (µM), activation” value: 0.00092 µM for the first, 0.0007 µM for the second.

First: [dNMeY]F[NMeL][Pro(4Ph)][dS]Q[2Nal][dA][Tic]S [YW-216]
Second: {Palmitoyl-PEG8}-[βAla][βAla][dNMeY]F[NMeL][Pro(trans-4-Ph)][dS]Q[2Nal][dA][Tic]S [YW-217]
The “EC50 (µM), activation” value of the first is 2.5-fold lower: 0.0013 µM for the first, 0.0033 µM for the second.

Compared with [dY][Phe(4-Cl)][NMeL]P[dS]QF[dA][Tic]S [YW-203], [dY]F[NMeL][Pro(trans-4-Ph)][dS]QF[dA][Tic]S [YW-215] is 1.7-fold lower in “EC50 (µM), activation” value: 0.0082 µM for the first, 0.0048 µM for the second.

Compared with [dY][2Nal][NMeL]P[dS]QF[dA][Tic]S [YW-200], [dY]F[NMeL]P[dS]QF[dA][Phe(4-Cl)]S [YW-206] is 2.1-fold lower in “EC50 (µM), activation” value: 0.019 µM for the first, 0.009 µM for the second.

Going from B2 to [dY][Phe(4-Me)][NMeL]P[dS]QF[dA][Tic]S [YW-202], the “EC50 (µM), activation” value rises from 0.002 µM to 0.0064 µM (3.2-fold).

First: {4‑(trifluoromethyl)benzoyl}-[dY]F[NMeL]P[dS]QF[dA][Tic]S-OH [YW-195]
Second: [dY][Bpa][NMeL]P[dS]QF[dA][Tic]S [YW-201]
The “EC50 (µM), activation” value of the first is 95-fold lower: 0.0008 µM for the first, 0.076 µM for the second.

Compared with [dY]F[NMeL][Hyp][dS]QF[dA][Tic]S [YW-198], [dY][1Nal][NMeL]P[dS]QF[dA][Tic]S [YW-199] is 1.8-fold lower in “EC50 (µM), activation” value: 0.0053 µM for the first, 0.0029 µM for the second.
